The values that follow come from patent US20100015170A1.

For test [1], the target named is mouse Toll-like receptor 5 (mouse) (UniProt Q9JLF7). Description: cell-based or functional assay.
Test [2] concerns the target human Toll-like receptor 5 (human) (UniProt O60602). As to the kind of experiment: cell-based or functional assay.
Chain of UniProt O60602 (O60602 21-858): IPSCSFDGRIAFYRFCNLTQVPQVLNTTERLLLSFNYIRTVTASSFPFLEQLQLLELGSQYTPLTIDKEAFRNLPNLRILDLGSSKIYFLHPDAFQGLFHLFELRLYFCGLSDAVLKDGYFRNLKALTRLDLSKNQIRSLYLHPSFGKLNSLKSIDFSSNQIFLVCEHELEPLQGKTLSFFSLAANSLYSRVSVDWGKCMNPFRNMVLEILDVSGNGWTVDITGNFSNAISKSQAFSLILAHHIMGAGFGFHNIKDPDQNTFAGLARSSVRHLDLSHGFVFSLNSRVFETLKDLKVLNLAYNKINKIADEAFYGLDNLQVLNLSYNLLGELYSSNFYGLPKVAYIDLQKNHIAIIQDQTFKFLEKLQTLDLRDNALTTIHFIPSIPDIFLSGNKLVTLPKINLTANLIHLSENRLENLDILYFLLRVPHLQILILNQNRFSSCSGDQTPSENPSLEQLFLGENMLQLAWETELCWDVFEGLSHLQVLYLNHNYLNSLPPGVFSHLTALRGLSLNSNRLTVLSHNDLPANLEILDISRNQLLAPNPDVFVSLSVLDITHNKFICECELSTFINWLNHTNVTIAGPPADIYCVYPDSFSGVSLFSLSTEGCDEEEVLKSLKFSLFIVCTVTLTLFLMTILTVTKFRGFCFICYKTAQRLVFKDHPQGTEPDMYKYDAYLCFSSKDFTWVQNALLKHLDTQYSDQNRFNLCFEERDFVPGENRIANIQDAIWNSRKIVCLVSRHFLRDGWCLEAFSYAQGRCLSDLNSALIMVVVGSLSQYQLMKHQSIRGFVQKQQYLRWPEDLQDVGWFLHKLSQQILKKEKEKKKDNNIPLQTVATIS

Chain of UniProt Q9JLF7 (Q9JLF7 27-859): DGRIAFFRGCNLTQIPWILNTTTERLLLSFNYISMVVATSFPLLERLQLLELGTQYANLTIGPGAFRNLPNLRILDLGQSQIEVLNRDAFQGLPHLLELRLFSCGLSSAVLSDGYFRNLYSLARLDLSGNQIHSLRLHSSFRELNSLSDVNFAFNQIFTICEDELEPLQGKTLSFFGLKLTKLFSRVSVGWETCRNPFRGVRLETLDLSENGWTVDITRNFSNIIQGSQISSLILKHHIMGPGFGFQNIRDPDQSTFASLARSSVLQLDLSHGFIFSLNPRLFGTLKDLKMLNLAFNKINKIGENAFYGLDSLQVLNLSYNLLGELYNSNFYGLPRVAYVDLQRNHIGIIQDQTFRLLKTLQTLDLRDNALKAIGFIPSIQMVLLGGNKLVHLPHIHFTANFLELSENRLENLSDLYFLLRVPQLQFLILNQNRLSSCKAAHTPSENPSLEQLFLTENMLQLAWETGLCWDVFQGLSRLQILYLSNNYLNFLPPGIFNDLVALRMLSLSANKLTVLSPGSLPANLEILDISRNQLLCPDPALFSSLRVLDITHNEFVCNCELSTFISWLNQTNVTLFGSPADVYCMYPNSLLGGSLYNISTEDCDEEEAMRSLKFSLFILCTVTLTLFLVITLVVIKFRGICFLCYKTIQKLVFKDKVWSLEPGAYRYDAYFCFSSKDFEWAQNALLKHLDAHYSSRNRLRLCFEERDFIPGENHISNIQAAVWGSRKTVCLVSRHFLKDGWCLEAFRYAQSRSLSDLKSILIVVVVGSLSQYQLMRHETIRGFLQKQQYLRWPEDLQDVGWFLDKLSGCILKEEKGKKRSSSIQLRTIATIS

In turn, “recombinant mutant flagellin FliC R90A (from UniProt P72151 2-488) (ligand)” had a TLR5-mediated NF-κB activation (luciferase, HEK293 cells with mouse TLR5) (fold lower than FliC WT) in test [1] of more than 100. In test [2], this substance showed a TLR5-mediated NF-κB activation (luciferase, HEK293 cells with human TLR5) (fold lower than FliC WT) of more than 100.
Regarding “recombinant mutant flagellin FliC L88A (from UniProt P72151 2-488) (ligand)”, the TLR5-mediated NF-κB activation (luciferase, HEK293 cells with mouse TLR5) (fold lower than FliC WT) in test [1] is more than 100. This substance also yielded a TLR5-mediated NF-κB activation (luciferase, HEK293 cells with human TLR5) (fold lower than FliC WT) in test [2] of more than 100.
